The values below come from US20090299044A1 (priority 2006, published 2009).

Entries after “also recorded” stand apart in the source; their conditions may differ. Read-outs that look alike come from different tables or passages of the source. Bridge positions count the residues as written; N and C are the ends. Ends that are not written are not given here. Peptide text beside a SMILES is read from it.

For assay [1], the system named is IL-2 production, human whole blood. Format: cell-based.
Assay [2] deals with T1, human Kv1.1 (Homo sapiens, UniProt Q09470). The assay can be described thus: cell-based. The note with it: IC50 on HEK/Kv1.1. More on the design: expressed in transfected cells; host or cells: HEK293.
For assay [3], the system named is IFN-g production, human whole blood. The format is cell-based.
Assay [4] addresses T2, human Kv1.3 channel (Homo sapiens, UniProt P22001). Nature of the assay: cell-based or functional assay.
The target in assay [5] is T1, human Kv1.1. Nature of the assay: cell-based or functional assay.
In assay [6] the test system is CD40L on CD4+ T cells, human whole blood. The format is cell-based.
Assay [7] deals with T2, human Kv1.3 channel. Nature of the assay: cell-based. The format is cell-based.
In assay [8] the test system is IL-2R on CD4+ T cells, human whole blood. The format is cell-based.
In assay [9] the target is human Kv1.1 voltage-gated potassium channel (human) (UniProt Q09470). Nature of the assay: cell-based or functional assay.
Assay [10] has as its target human Kv1.3 voltage-gated potassium channel (human) (UniProt P22001). The assay can be described thus: cell-based or functional assay.

human Kv1.3 voltage-gated potassium channel (human), sequence (P22001 whole entry): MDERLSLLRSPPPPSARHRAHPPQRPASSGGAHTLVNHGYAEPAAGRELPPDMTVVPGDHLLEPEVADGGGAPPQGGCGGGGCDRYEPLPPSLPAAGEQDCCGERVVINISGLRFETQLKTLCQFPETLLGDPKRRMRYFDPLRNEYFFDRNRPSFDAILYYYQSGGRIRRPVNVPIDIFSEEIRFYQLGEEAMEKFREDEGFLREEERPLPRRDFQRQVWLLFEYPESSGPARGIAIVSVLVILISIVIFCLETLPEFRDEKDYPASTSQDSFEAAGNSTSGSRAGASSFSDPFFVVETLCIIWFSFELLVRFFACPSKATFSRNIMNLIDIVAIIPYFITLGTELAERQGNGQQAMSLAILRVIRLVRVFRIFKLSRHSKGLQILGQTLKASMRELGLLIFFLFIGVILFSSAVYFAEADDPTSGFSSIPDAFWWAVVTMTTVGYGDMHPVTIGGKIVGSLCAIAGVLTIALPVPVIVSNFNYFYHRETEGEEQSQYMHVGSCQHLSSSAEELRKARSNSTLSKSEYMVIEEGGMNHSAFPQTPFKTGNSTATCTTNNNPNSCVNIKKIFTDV
T2 sequence (P22001 whole entry): as above
T1 sequence (Q09470 whole entry): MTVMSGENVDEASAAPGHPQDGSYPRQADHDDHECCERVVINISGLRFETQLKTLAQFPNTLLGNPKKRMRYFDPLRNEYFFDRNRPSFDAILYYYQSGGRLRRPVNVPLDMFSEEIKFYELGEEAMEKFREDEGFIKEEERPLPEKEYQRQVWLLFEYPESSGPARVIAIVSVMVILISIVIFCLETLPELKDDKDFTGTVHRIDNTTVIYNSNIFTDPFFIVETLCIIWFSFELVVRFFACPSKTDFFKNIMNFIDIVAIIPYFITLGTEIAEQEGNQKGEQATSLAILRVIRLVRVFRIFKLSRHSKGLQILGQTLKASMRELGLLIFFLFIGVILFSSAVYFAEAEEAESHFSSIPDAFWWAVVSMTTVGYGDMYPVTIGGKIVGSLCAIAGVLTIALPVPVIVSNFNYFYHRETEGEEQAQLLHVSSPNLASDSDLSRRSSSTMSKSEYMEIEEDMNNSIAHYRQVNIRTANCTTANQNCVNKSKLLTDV
human Kv1.1 voltage-gated potassium channel (human), sequence (Q09470 whole entry): as above

Turning to `CC[C@H](C)[C@@H]1NC(=O)[C@H](CCCCN)NC(=O)[C@@H](NC(=O)[C@H](CCCCN)NC(=O)[C@@H](NC(=O)[C@H](CC(N)=O)NC(=O)[C@@H](NC(=O)[C@@H](NC(=O)[C@@H](NC(=O)CN)C(C)C)[C@@H](C)CC)[C@@H](C)CC)C(C)C)CSSC[C@@H]2NC(=O)[C@H](CCCCN)NC(=O)CNC(=O)[C@H](Cc3ccccc3)NC(=O)[C@H](CCCNC(=N)N)NC(=O)[C@H](CCSC)NC(=O)CNC(=O)[C@H](C)NC(=O)[C@H](CCCCN)NC(=O)[C@H](CCCCN)NC(=O)[C@@H]3CSSC[C@@H](C(=O)N[C@H](C(=O)N4CCC[C@H]4C(=O)N[C@@H](CCCCN)C(=O)O)[C@@H](C)O)NC(=O)[C@H](Cc4c[nH]cn4)NC(=O)[C@H](CSSC[C@H](NC(=O)[C@H](CCC(N)=O)NC(=O)[C@H](CCCNC(=N)N)NC(=O)[C@H](CO)NC1=O)C(=O)N[C@@H](CC(C)C)C(=O)N[C@@H](CCC(=O)O)C(=O)N1CCC[C@H]1C(=O)N3)NC(=O)[C@H](CCCCN)NC(=O)CNC(=O)[C@H](CC(N)=O)NC(=O)[C@H](C)NC2=O` [OSK1[Ala-29]] (H-GVIINVKCKISRQCLEPCKKAGMRFGKCANGKCHCTPK-OH; disulfide 8-28, 14-33, 18-35), the “potency relative to cyclosporin A in blocking the cytokine response in human whole blood (in words)” value in [1] was “several orders of magnitude more potent”. For the same molecule, in [2], the IC50 was 2.7 nM.
For the molecule `CC[C@H](C)[C@@H]1NC(=O)[C@H](CCCCN)NC(=O)[C@@H](NC(=O)[C@H](CCCCN)NC(=O)[C@@H](NC(=O)[C@H](CC(N)=O)NC(=O)[C@@H](NC(=O)[C@@H](NC(=O)[C@@H](NC(=O)CN)C(C)C)[C@@H](C)CC)[C@@H](C)CC)C(C)C)CSSC[C@@H]2NC(=O)[C@H](CCCCN)NC(=O)CNC(=O)[C@H](Cc3ccccc3)NC(=O)[C@H](CCCNC(=N)N)NC(=O)[C@H](CCSC)NC(=O)CNC(=O)[C@H](C)NC(=O)[C@H](CCCCN)NC(=O)[C@H](CCCCN)NC(=O)[C@@H]3CSSC[C@@H](C(=O)N[C@H](C(=O)N4CCC[C@H]4C(=O)N[C@@H](CCCCN)C(=O)O)[C@@H](C)O)NC(=O)[C@H](Cc4c[nH]cn4)NC(=O)[C@H](CSSC[C@H](NC(=O)[C@H](CCC(N)=O)NC(=O)[C@H](CCCNC(=N)N)NC(=O)[C@H](CCC(=O)O)NC1=O)C(=O)N[C@@H](CC(C)C)C(=O)N[C@@H](CCC(=O)O)C(=O)N1CCC[C@H]1C(=O)N3)NC(=O)[C@H](CCCCN)NC(=O)CNC(=O)[C@H](CC(N)=O)NC(=O)[C@H](CCSC)NC2=O` [S11E] (H-GVIINVKCKIERQCLEPCKKAGMRFGKCMNGKCHCTPK-OH; disulfide 8-28, 14-33, 18-35), the IC50 in assay [1] (read-out: Analogue Activity (IC50, pM) WB/IL-2) turned out to be 39900 pM; in assay [3] (read-out: Analogue Activity (IC50, pM) WB/IFNg), 16900 pM.
E. coli-derived Fc-L-OSK1 (Fc fusion): in assay [4], the Kv1.3 IC50 by WCVC (whole cell patch clamp, HEK293/Kv1.3 cells) worked out at 3.2 nM.
Molecule “E. coli-derived Fc-L-ShK[1-35] (Fc fusion)” returned a Kv1.3 IC50 by WCVC (whole cell patch clamp, HEK293/Kv1.3 cells) in assay [4] of 1.4 nM.
Turning to “E. coli-derived Fc-L-ShK[2-35] (Fc fusion)”, in assay [4], the Kv1.3 IC50 by IWQ (IonWorks planar patch clamp, CHO/Kv1.3 cells) came to 2.8 nM and the Kv1.3 IC50 by WCVC (whole cell patch clamp, HEK293/Kv1.3 cells) was 1.3 nM.
Regarding “E. coli-derived ShK[2-35]-L-Fc (Fc fusion)”, the Kv1.3 IC50 by IWQ (IonWorks planar patch clamp, CHO/Kv1.3 cells) in [4] is 4.9 nM.
Regarding “E. coli-derived Shk[1-35]-L-Fc (Fc fusion)”, the Kv1.3 IC50 by IWQ (IonWorks planar patch clamp, CHO/Kv1.3 cells) in [4] turned out to be 2.4 nM.
In assay [5], Fc-L10-OSK1 (CHO-expressed) (Fc fusion) showed a hKv1.1: IC50 (whole cell patch clamp, block of K+ current) of 41.6 nM.
In the case of “Fc-L10-ShK[2-35]: human IgG1 Fc fused via 10 amino acid linker to ShK[2-35], CHO-derived peptibody”, the “thapsigargin-induced upregulation of CD40L on T cells in human whole blood (in words)” value in assay [6] is given as “blocked”. Besides, the “thapsigargin-induced IL-2 production in human whole blood (in words)” value in assay [1] is “potently blocked IL-2 secretion in human whole blood; also recorded: suppressed”. Also, the “thapsigargin-induced IFN-g production in human whole blood (in words)” value in assay [3] was “suppressed; also recorded: blocked”. In [7], the “block of human Kv1.3 current (in words)” value was “potently blocks”. Also, the “thapsigargin-induced upregulation of the IL-2R on T cells in human whole blood (in words)” value in [8] was “suppressing activation of the IL-2R on CD4+ T cells; also recorded: blocked”.
As for “Fc-L25-ShK[2-35] (CHO-derived) (Fc fusion)”, the IC50 of current block, whole cell patch clamp on HEK293/Kv1.3 cells in [4] was found to be 0.15 nM.
“IbTx: BKCa channel inhibitor iberiotoxin, Bachem (QFTDVDCSVSKECWSVCKDLFGVDRGKCMGKKCRCYQ; Definition of Artificial Sequence: Synthetic peptide) [reference compound]”: the “thapsigargin-induced upregulation of CD40L on T cells in human whole blood (in words)” value in [6] is on record as “no significant activity”. Moreover, the “thapsigargin-induced IL-2 production in human whole blood (in words)” value in [1] is given as “no significant activity”. Further, the “thapsigargin-induced IFN-g production in human whole blood (in words)” value in assay [3] is given as “no significant activity”. The “thapsigargin-induced upregulation of the IL-2R on T cells in human whole blood (in words)” value in assay [8] is reported as “no significant activity”.
Take “OSK1 (native Orthochirus scrobiculosus toxin peptide)”: the Kv1.1 (IC50, pM), whole cell patch clamp ePhys in assay [9] worked out at 202 pM. In [10], this molecule showed a Kv1.3 (IC50, pM), whole cell patch clamp ePhys of 39 pM and a Kv1.3 Selectivity (=Kv1.1/Kv.3 IC50) of 5.
On to OSK1 analogue E16K, K20D (peptide), for which, in [10], the WB/IFNg (IC50, nM), human whole blood came out at 1.32 nM and the WB/IL-2 (IC50, nM), human whole blood turned out to be 1.58 nM.
“SEQ ID No: 4989: OSK1 analog without beta strand 1 (des 1-7), Table 42 (CKISRQCLKPCKDAGMRFGKCMNGKCHC-NH2; ends and bridges not checked)”: the “blockade of the whole blood cytokine response (IL-2 and IFNg), in words” value (“blockade” for short) in assay [1] is “retain activity in blocking inflammation”.
The molecule Synthetic OSK1 toxin peptide came in with a hKv1.1: IC50 (whole cell patch clamp, block of K+ current) in assay [5] of 0.16 nM. In addition, the hKv1.3: IC50 (whole cell patch clamp, block of K+ current) in assay [4] turned out to be 0.039 nM.

B1: FcLoop-L2-OsK1-L2: OsK1 inserted into the human IgG1 Fc-loop between Leu139 and Thr140 with 2-Gly linkers (protein)
chain: MDKTHTCPPCPAPELLGGPSVFLFPPKPKDTLMISRTPEVTCVVVDVSHEDPEVKFNWYVDGVEVHNAKTKPREEQYNSTYRVVSVLTVLHQDWLNGKEYKCKVSNKALPAPIEKTISKAKGQPREPQVYTLPPSRDELGGGVIINVKCKISRQCLEPCKKAGMRFGKCMNGKCHCTPKGGTKNQVSLTCLVKGFYPSDIAVEWESNGQPENNYKTTPPVLDSDGSFFLYSKLTVDKSRWQQGNVFSCSVMHEALHNHYTQKSLSLSPGK
modifications: Definition of Artificial Sequence: Synthetic protein
Regarding B1, in assay [1], the “blockade” value is “potent blockade”.

B2: MGGHHHHHHGGGPSVFLFPPKPKDTLMISRTPEVTCVVVDVSHEDPEVKFNWYVDGVEVHNAKTKPREEQYNSTYRVVSVLTVLHQDWLNGKEYKCKVSNKALPAPIEKTISGGGGSGGGGSGVIINVKCKISRQCLEPCKKAGMRFGKCMNGKCHCTPK (protein)
chain: MGGHHHHHHGGGPSVFLFPPKPKDTLMISRTPEVTCVVVDVSHEDPEVKFNWYVDGVEVHNAKTKPREEQYNSTYRVVSVLTVLHQDWLNGKEYKCKVSNKALPAPIEKTISGGGGSGGGGSGVIINVKCKISRQCLEPCKKAGMRFGKCMNGKCHCTPK
Regarding B2, the “blockade” value in assay [1] is reported as “active in blocking inflammation; also recorded: modest blockade”. The IC50 was found to be 38500 pM in assay [1] (read-out: WB/IL-2 (IC50)) and 55200 pM in [3] (read-out: WB/IFNg (IC50)).

B3: PEGylated CH2-OSK1: CH2-OSK1 fusion protein mono-PEGylated with 20 kD methoxy-PEG-aldehyde (conjugate)
chain: MGGHHHHHHGGGPSVFLFPPKPKDTLMISRTPEVTCVVVDVSHEDPEVKFNWYVDGVEVHNAKTKPREEQYNSTYRVVSVLTVLHQDWLNGKEYKCKVSNKALPAPIEKTISGGGGSGGGGSGVIINVKCKISRQCLEPCKKAGMRFGKCMNGKCHCTPK
Consider B3, for which the “blockade” value in [1] is “active in blocking inflammation; also recorded: modest blockade”.

B4: FcLoop-L2-ShK-L2: ShK inserted into the human IgG1 Fc-loop with 2-Gly linkers (protein)
chain: MDKTHTCPPCPAPELLGGPSVFLFPPKPKDTLMISRTPEVTCVVVDVSHEDPEVKFNWYVDGVEVHNAKTKPREEQYNSTYRVVSVLTVLHQDWLNGKEYKCKVSNKALPAPIEKTISKAKGQPREPQVYTLPPSRDELGGRSCIDTIPKSRCTAFQCKHSMKYRLSFCRKTCGTCGGTKNQVSLTCLVKGFYPSDIAVEWESNGQPENNYKTTPPVLDSDGSFFLYSKLTVDKSRWQQGNVFSCSVMHEALHNHYTQKSLSLSPGK
modifications: Definition of Artificial Sequence: Synthetic protein
Regarding B4, the “blockade” value in [1] is “potent blockade”.
